The source of these data is paper PMC4777856, “Structural Basis of Stereospecificity in the Bacterial Enzymatic Cleavage of β-Aryl Ether Bonds in Lignin” (The Journal of Biological Chemistry, 2015).

Substrate in series [1]: COc1ccc(C(=O)[C@H](CO)Oc2ccc(C=O)cc2OC)cc1OC
Briefly: purified protein. In kind it is biochemical, Sphingobium sp. SYK-6. The conditions noted are these: 5 mM GSH, 25 mM Tris, 2.5% DMSO, pH 8.0, 30 °C.

Substrate in series [2]: COc1ccc(C(=O)[C@@H](CO)Oc2ccc(C=O)cc2OC)cc1OC
Briefly: purified protein. In kind it is biochemical, Sphingobium sp. SYK-6. To be noted: 5 mM GSH, 25 mM Tris, 2.5% DMSO, pH 8.0, 30 °C.

B1: LigF (Sphingobium sp. SYK-6) (protein)
chain: MTLKLYSFGPGANSLKPLATLYEKGLEFEQVFVDPSKFEQHSDWFKKINPRGQVPALWHDGKVVTESTVICEYLEDVFPESGNSLRPADPFKRAEMRVWTKWVDEYFCWCVSTIGWAFGIKAIAQKMSDEEFEEHINKNVPIPEQQLKWRRARNGFPQEMLDEEFRKVGVSVARLEETLSKQDYLVDTGYSLADICNFAIANGLQRPGGFFGDYVNQEKTPGLCAWLDRINARPAIKEMFEKSKREDLLKRQNEKVA
notes: full-length wild type LigF (254 residues), vector pVP102KSSLigF; dimer
Consider B1, for which, in the series “purified protein [1]”, the Km (usually the concentration of substrate that gives half-maximal velocity) was 269 ± 1 µM; the Vmax (commonly the top rate of the reaction or transport when substrate is in excess) amounted to 63.8 µmol/min/mg; the kcat – broadly, the number of substrate molecules converted per active site and unit of time at saturation – is 31.9 ± 0.1 s⁻¹; the kcat/Km (commonly the turnover number divided by the Michaelis constant) turned out to be 118400 ± 1100 M⁻¹ s⁻¹.

B2: LigE (Sphingobium sp. SYK-6) (protein)
chain: MARNNTITLYDLQLESGCTISPYVWRTKYALKHKGFDIDIVPGGFTGILERTGGRSERVPVIVDDGEWVLDSWVIAEYLDEKYPDRPMLFEGPTQKNLMKFLDNWLWSTAVGPWFRCYILDYHDLSLPQDRDYVRWSREQWFLGGQRLEDVQAGREDRLPLVPPTLEPFRRILAETKWLGGDQPNFADYSALAVFLWTASVARTPPLTEDDPLRDWLDRGFDLFDGLGRHPGMNPLFGLKLREGDPEPFVRQTGPAGAGGQALNKGPQTTKMPPRVAEKAD
notes: full-length LigE (282 residues), E. coli, synthesized gene in pCPD, C-terminal CPD-His tag cleaved off after a leucine; dimer
With B2, in the series “purified protein [2]”, the Km amounted to 554 ± 16 µM, the Vmax was 59.7 µmol/min/mg, the kcat turned out to be 31.9 ± 0.6 s⁻¹ and the kcat/Km turned out to be 57600 ± 4800 M⁻¹ s⁻¹.
